Experiments:
[1] = substrate: C/C(=C\C(=O)O)C(=O)SCCNC(=O)CCNC(=O)[C@H](O)C(C)(C)COP(=O)(O)OP(=O)(O)OC[C@H]1O[C@@H](n2cnc3c(N)ncnc32)[C@H](O)[C@@H]1OP(=O)(O)O; assay: UPLC of CoA esters (hydration to beta-methylmalyl-CoA); assay type: biochemical, Haloarcula hispanica; details: 100 mM Tris/HCl pH 7.8, 3 M KCl, 5 mM MgCl2, 37°C, forward direction (hydration), apparent
Description: UPLC of CoA esters (hydration to beta-methylmalyl-CoA) on mesaconyl-CoA hydratase (Mch, Hah_1340)

[2] = substrate: C/C(=C\C(=O)SCCNC(=O)CCNC(=O)[C@H](O)C(C)(C)COP(=O)(O)OP(=O)(O)OC[C@H]1O[C@@H](n2cnc3c(N)ncnc32)[C@H](O)[C@@H]1OP(=O)(O)O)C(=O)O; assay: UPLC of CoA esters (hydration to (S)-citramalyl-CoA); assay type: biochemical, Haloarcula hispanica; details: 100 mM Tris/HCl pH 7.8, 3 M KCl, 5 mM MgCl2, 37°C, forward direction (hydration), apparent
Description: UPLC of CoA esters (hydration to (S)-citramalyl-CoA) on mesaconyl-CoA hydratase (Mch, Hah_1340)

[3] = substrate: C[C@H](C(=O)SCCNC(=O)CCNC(=O)[C@H](O)C(C)(C)COP(=O)(O)OP(=O)(O)OC[C@H]1O[C@@H](n2cnc3c(N)ncnc32)[C@H](O)[C@@H]1OP(=O)(O)O)[C@@H](O)C(=O)O; assay: UPLC of CoA esters (dehydration to mesaconyl-C1-CoA); assay type: biochemical, Haloarcula hispanica; details: 100 mM Tris/HCl pH 7.8, 3 M KCl, 5 mM MgCl2, 37°C, reverse direction (dehydration), apparent
Description: UPLC of CoA esters (dehydration to mesaconyl-C1-CoA) on mesaconyl-CoA hydratase (Mch, Hah_1340)

[4] = substrate: CC(C)(COP(=O)(O)OP(=O)(O)OC[C@H]1O[C@@H](n2cnc3c(N)ncnc32)[C@H](O)[C@@H]1OP(=O)(O)O)[C@@H](O)C(=O)NCCC(=O)NCCSC(=O)C[C@H](O)C(=O)O; assay: UPLC of CoA esters (dehydration); assay type: biochemical, Haloarcula hispanica; details: 100 mM Tris/HCl pH 7.8, 3 M KCl, 5 mM MgCl2, 37°C, apparent
Description: (§1) UPLC of CoA esters (dehydration) on mesaconyl-CoA hydratase (Mch, Hah_1340)

[5] = substrate: CC(C)(COP(=O)(O)OP(=O)(O)OC[C@H]1O[C@@H](n2cnc3c(N)ncnc32)[C@H](O)[C@@H]1OP(=O)(O)O)[C@@H](O)C(=O)NCCC(=O)NCCSC(=O)C[C@](C)(O)C(=O)O; assay: UPLC of CoA esters (dehydration); assay type: biochemical, Haloarcula hispanica; details: 100 mM Tris/HCl pH 7.8, 3 M KCl, 5 mM MgCl2, 37°C, apparent
Description: as §1

[6] = target: the molecule itself; assay: SEC; analytical gel filtration, 24-ml Superdex 200 Increase 10/300 GL, 50 mM Tris/HCl pH 8.0 with 2 M KCl, 0.75 ml/min; calibrated with alcohol dehydrogenase (150 kDa), bovine serum albumin (66 kDa), carbonic anhydrase (29 kDa), cytochrome c (12.4 kDa); native mass against the monomer's mass
[7] = substrate: C=CC(=O)O; assay: UPLC of CoA-ester formation; assay type: biochemical, Haloarcula hispanica; details: CoA acceptor, 1 mM succinyl-CoA, 100 mM Tris/HCl pH 7.8, 3 M KCl, 5 mM MgCl2, 37°C, apparent
Description: (§2) UPLC of CoA-ester formation on succinyl-CoA:mesaconate CoA-transferase (Mct, Hah_1336)

[8] = substrate: CC(CC(=O)O)C(=O)O; assay: UPLC of CoA-ester formation; assay type: biochemical, Haloarcula hispanica; details: CoA acceptor, 1 mM succinyl-CoA, 100 mM Tris/HCl pH 7.8, 3 M KCl, 5 mM MgCl2, 37°C, apparent
Description: as §2

[9] = substrate: O=C(O)CCCC(=O)O; assay: UPLC of CoA-ester formation; assay type: biochemical, Haloarcula hispanica; details: CoA acceptor, 1 mM succinyl-CoA, 100 mM Tris/HCl pH 7.8, 3 M KCl, 5 mM MgCl2, 37°C, apparent
Description: as §2

[10] = substrate: C/C(=C\C(=O)O)C(=O)O; assay: UPLC of mesaconyl-CoA formation; assay type: biochemical, Haloarcula hispanica; details: CoA acceptor, 1 mM succinyl-CoA, 100 mM Tris/HCl pH 7.8, 3 M KCl, 5 mM MgCl2, 37°C, apparent
Description: (§3) UPLC of mesaconyl-CoA formation on succinyl-CoA:mesaconate CoA-transferase (Mct, Hah_1336)

[11] = substrate: CC(C)(COP(=O)(O)OP(=O)(O)OC[C@H]1O[C@@H](n2cnc3c(N)ncnc32)[C@H](O)[C@@H]1OP(=O)(O)O)[C@@H](O)C(=O)NCCC(=O)NCCSC(=O)CCC(=O)O; assay: UPLC of mesaconyl-CoA formation; assay type: biochemical, Haloarcula hispanica; details: CoA donor, 10 mM mesaconate, 100 mM Tris/HCl pH 7.8, 3 M KCl, 5 mM MgCl2, 37°C, apparent
Description: as §3

B1: mesaconyl-CoA hydratase from Haloarcula hispanica (enzyme, UniProt G0HQ35 1-358, looked up)
chain: MTDWTDPDALDLSDGETFDSLLDRADTREKGHFFEFFAEGDELAHDPGLRLSHHGSEQWMGQTLNHDPAYWRADTAQERGFEERPVHPDYLLACVMGITVEDLSEKGGYFLGRDDVEFHQPATAGTPLSVTSTVVDTRTSSSRPKYGIVTWETEGRDRETGETLVSYRRTNMIPRREPAATDGGAVGEQDEGGPAMPDTLLSPDGERFGDFQAALDTAREENAAVAYRHERGRTMDDQLVAGLPLSTLNTARQHHNRDEMADSPSGDIVAYGDVTRSIALAHARSDEATYREQRFADERFHDFVTLGDTVYGFTRVLDCDPDAGPERAGAVTFEHVAFNQEQTPVYSGRRTAHIQRHQ
notes: mesaconyl-CoA hydratase (Mch, Hah_1340) of Haloarcula hispanica; the 1.07-kb mch gene (358 amino acids, predicted molecular mass 40 kDa) was cloned into pTA963; No removal of the tag is described; also called Mch; Hah_1340; source: Haloferax volcanii H1209 (pTA963), purified (Ni-NTA, gel filtration); not shown: His6, N-terminal, kept
Q: B1 was tested. Which Km [1] did it give?
A: Its Km is 1000 ± 100 µM.

Q: What about the Vmax [1] of the same protein?
A: The Vmax was 20.7 µmol/min/mg.

Q: And the kcat/Km [1]?
A: The kcat/Km was 6900 M⁻¹ s⁻¹.

Q: What about the Km [2] of the same protein?
A: The Km was 180 ± 10 µM.

Q: What about the Vmax [2] of the same protein?
A: Its Vmax is 1.12 µmol/min/mg.

Q: And the kcat/Km [2]?
A: The kcat/Km was 2000 M⁻¹ s⁻¹.

Q: And the Km [3]?
A: Its Km is 350 ± 50 µM.

Q: And the Vmax [3]?
A: Its Vmax is 266 µmol/min/mg.

Q: And the kcat/Km [3]?
A: The kcat/Km was 254000 M⁻¹ s⁻¹.

Q: What about the Km [4] of the same protein?
A: Its Km is 320 ± 50 µM.

Q: And the Vmax [4]?
A: The Vmax was 3.6 µmol/min/mg.

Q: And the kcat/Km [4]?
A: Its kcat/Km is 3800 M⁻¹ s⁻¹.

Q: And the Km [5]?
A: The Km was 2600 ± 300 µM.

Q: What about the Vmax [5] of the same protein?
A: The Vmax was 1.6 µmol/min/mg.

Q: What about the kcat/Km [5] of the same protein?
A: The kcat/Km was 200 M⁻¹ s⁻¹.

Q: And the “stoichiometry N” value [6]?
A: Its value is 2.

B2: succinyl-CoA:mesaconate CoA-transferase from Haloarcula hispanica (enzyme, UniProt G0HQ31 1-396, looked up)
chain: MGALDDLRVLDLTQVLAGPYCTMLLADMGADVVKVERPGGDLIRSNPPFVSDGDEEAYGGYFQSVNRGKRSLELDLGTDEDREAFLSLVERADVVVENFKAGTMEKFDCGYETLREHNPDLIYSSIRGFGDPRTGETHRQGQPSFDLIAQALGGVMEITGQSDGPPTKVGPGVGDLFTAVLNAVGILAAVHHRERTGEGQYVDTAMYDSMVSLCERTVYQYSCDGESPTRQGNSHPTLFPYDSFEAADGHVVIAAFADGHWETLCEAMERPDLAADYPDAGSRIANRESLRREIADWTATIDSETLLDLLEGRVPAAPVQNTADIFDDPHIHDREMLTDVDQPGADEQITIAGSPIKMTETMPSPGGRAPLLDEHRAELLDEAGVGTGTNRVESDD
notes: succinyl-CoA:mesaconate CoA-transferase (Mct, Hah_1336) of Haloarcula hispanica; the 1.19-kb mct gene (396 amino acids, predicted molecular mass 43 kDa) was cloned into pTA963; No removal of the tag is described; also called Mct; Hah_1336; source: Haloferax volcanii H1209 (pTA963), purified (Ni-NTA, gel filtration); not shown: His6, N-terminal, kept
Q: Which results are given for B2?
A: Km [7]: 39300 ± 4600 µM; Vmax [7]: 6.2 µmol/min/mg; kcat/Km [7]: 120 M⁻¹ s⁻¹; Km [8]: 600 ± 100 µM; Vmax [8]: 11 µmol/min/mg; kcat/Km [8]: 12400 M⁻¹ s⁻¹; Km [9]: 40900 ± 3900 µM; Vmax [9]: 18.1 µmol/min/mg; kcat/Km [9]: 320 M⁻¹ s⁻¹; Km [10]: 1300 ± 200 µM; Vmax [10]: 17 µmol/min/mg; kcat [10]: 12.2 s⁻¹; kcat/Km [10]: 9800 M⁻¹ s⁻¹; Km [11]: 2800 ± 200 µM; Vmax [11]: 69.2 µmol/min/mg; kcat/Km [11]: 17800 M⁻¹ s⁻¹; stoichiometry N [6]: 2

From publication PMC5592240, “Succinyl-CoA:Mesaconate CoA-Transferase and Mesaconyl-CoA Hydratase, Enzymes of the Methylaspartate Cycle in Haloarcula hispanica” (Frontiers in Microbiology, 2017)
